Assay results: US20180155451A1 (published 2018)

T1: FcγRIIb (human, UniProt P31994 43-217)
T1 construct: extracellular domain; Soluble extracellular domain with C-terminal His tag, used as analyte in Biacore; also called FcgRIIb; 2b; not shown: His tag attached to the C terminus
T1 sequence (looked up): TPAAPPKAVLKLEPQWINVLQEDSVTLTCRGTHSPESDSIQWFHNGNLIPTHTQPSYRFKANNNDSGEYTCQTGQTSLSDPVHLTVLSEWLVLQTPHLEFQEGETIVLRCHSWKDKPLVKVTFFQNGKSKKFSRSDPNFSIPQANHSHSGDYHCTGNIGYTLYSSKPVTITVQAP

T2: FcγRIIb (human, UniProt P31994 43-217)
T2 construct: extracellular domain; also called FcgRIIb; 2b; not shown: His tag at the C terminus
T2 sequence (looked up): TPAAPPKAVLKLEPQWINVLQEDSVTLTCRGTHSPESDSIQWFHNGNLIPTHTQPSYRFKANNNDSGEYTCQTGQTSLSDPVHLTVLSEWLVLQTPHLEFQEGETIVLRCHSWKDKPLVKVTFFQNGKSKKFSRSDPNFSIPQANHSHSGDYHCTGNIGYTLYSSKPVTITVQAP


Legend:
[1] = target: T3, FcγRIa (human, UniProt P12314 16-292); experiment: SPR (Biacore); He/Con_1a divided by He/Con_2b (FcγRIa against FcγRIIb)
T3 construct: extracellular domain; Soluble extracellular domain with C-terminal His tag, used as analyte in Biacore; also called FcgRI; 1a; not shown: His tag attached to the C terminus
T3 sequence (P12314 16-292): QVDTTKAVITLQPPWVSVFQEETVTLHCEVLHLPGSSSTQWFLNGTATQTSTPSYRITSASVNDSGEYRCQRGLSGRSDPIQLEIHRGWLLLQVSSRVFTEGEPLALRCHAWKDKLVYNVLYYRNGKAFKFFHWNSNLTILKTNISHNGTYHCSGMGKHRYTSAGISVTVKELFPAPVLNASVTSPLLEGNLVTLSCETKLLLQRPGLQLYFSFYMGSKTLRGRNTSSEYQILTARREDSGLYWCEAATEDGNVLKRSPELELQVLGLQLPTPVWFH

[2] = target: T3, FcγRIa; experiment: SPR (Biacore), antibody captured on antigen peptide, FcγR as analyte; relative to GpH7-A5/GpH7-B3/GpL16-k0 = 100
[3] = target: T1, FcγRIIb; experiment: as above
[4] = target: T4, FcγRIa (human, UniProt P12314 16-292); experiment: SPR; He/Con_1a divided by He/Con_2b (FcγRIIb as reference)
T4 construct: extracellular domain; also called FcgRI; 1a; not shown: His tag at the C terminus
T4 sequence (P12314 16-292): as above

[5] = target: T2, FcγRIIb; experiment: SPR (Biacore), captured antibody, soluble FcγR; relative to GpH7-A5/GpH7-B3/GpL16-k0
[6] = target: T4, FcγRIa; experiment: as above

Binder	Ia/IIb He_1a/2b [1] [ratio]	He/Con_1a [2]	He/Con_2b [3]	Ia/IIb He_1a/2b [4] [ratio]	He/Con_2b [5]	He/Con_1a [6]
GpH7-A5/GpH7-B3 variant S267_06M/GpL16-k0 (antibody, human IgG1, kappa, Heterodimerized IgG1; mutation in the GpH7-B3 H chain only; also called He Ab) heavy 1: not shown heavy 2: not shown light: DIVMTQSPLSLPVTPGEPASISCQASESLVHSNRNTYLHWYLQKPGQSPQLLIYKVSNRFSGVPDRFSGSGSGTDFTLKISRVEAEDVGVYYCSQNTHVPPTFGQGTKVEIERTVAAPSVFIFPPSDEQLKSGTASVVCLLNNFYPREAKVQWKVDNALQSGNSQESVTEQDSKDSTYSLSSTLTLSKADYEKHKVYACEVTHQGLSSPVTKSFNRGEC	0.51	106 % of control	210 % of control			
GpH7-A5/GpH7-B3 variant D265_04F/GpL16-k0 (antibody, human IgG1, kappa, He Ab: mutation only in the GpH7-B3 H chain; EU numbering; also called He Ab) heavy 1: not shown heavy 2: not shown light: DIVMTQSPLSLPVTPGEPASISCQASESLVHSNRNTYLHWYLQKPGQSPQLLIYKVSNRFSGVPDRFSGSGSGTDFTLKISRVEAEDVGVYYCSQNTHVPPTFGQGTKVEIERTVAAPSVFIFPPSDEQLKSGTASVVCLLNNFYPREAKVQWKVDNALQSGNSQESVTEQDSKDSTYSLSSTLTLSKADYEKHKVYACEVTHQGLSSPVTKSFNRGEC				16.8	3.2 relative, HeCon Ab = 100	53 relative, HeCon Ab = 100
GpH7-A5/GpH7-B3 variant S267_10E/GpL16-k0 (antibody, human IgG1, kappa, Heterodimerized IgG1; mutation in the GpH7-B3 H chain only; also called He Ab) heavy 1: not shown heavy 2: not shown light: DIVMTQSPLSLPVTPGEPASISCQASESLVHSNRNTYLHWYLQKPGQSPQLLIYKVSNRFSGVPDRFSGSGSGTDFTLKISRVEAEDVGVYYCSQNTHVPPTFGQGTKVEIERTVAAPSVFIFPPSDEQLKSGTASVVCLLNNFYPREAKVQWKVDNALQSGNSQESVTEQDSKDSTYSLSSTLTLSKADYEKHKVYACEVTHQGLSSPVTKSFNRGEC	0.28	106 % of control	379 % of control			
GpH7-A5/GpH7-B3 variant S267_07I/GpL16-k0 (antibody, human IgG1, kappa, Heterodimerized IgG1; mutation in the GpH7-B3 H chain only; also called He Ab) heavy 1: not shown heavy 2: not shown light: DIVMTQSPLSLPVTPGEPASISCQASESLVHSNRNTYLHWYLQKPGQSPQLLIYKVSNRFSGVPDRFSGSGSGTDFTLKISRVEAEDVGVYYCSQNTHVPPTFGQGTKVEIERTVAAPSVFIFPPSDEQLKSGTASVVCLLNNFYPREAKVQWKVDNALQSGNSQESVTEQDSKDSTYSLSSTLTLSKADYEKHKVYACEVTHQGLSSPVTKSFNRGEC	0.52	100 % of control	192 % of control			
GpH7-A5/GpH7-B3 variant V266_06M/GpL16-k0 (antibody, human IgG1, kappa, Heterodimerized IgG1; mutation in the GpH7-B3 H chain only; also called He Ab) heavy 1: not shown heavy 2: not shown light: DIVMTQSPLSLPVTPGEPASISCQASESLVHSNRNTYLHWYLQKPGQSPQLLIYKVSNRFSGVPDRFSGSGSGTDFTLKISRVEAEDVGVYYCSQNTHVPPTFGQGTKVEIERTVAAPSVFIFPPSDEQLKSGTASVVCLLNNFYPREAKVQWKVDNALQSGNSQESVTEQDSKDSTYSLSSTLTLSKADYEKHKVYACEVTHQGLSSPVTKSFNRGEC	0.4	99.7 % of control	251 % of control			
GpH7-A5/GpH7-B3 variant V266_07I/GpL16-k0 (antibody, human IgG1, kappa, Heterodimerized IgG1; mutation in the GpH7-B3 H chain only; also called He Ab) heavy 1: not shown heavy 2: not shown light: DIVMTQSPLSLPVTPGEPASISCQASESLVHSNRNTYLHWYLQKPGQSPQLLIYKVSNRFSGVPDRFSGSGSGTDFTLKISRVEAEDVGVYYCSQNTHVPPTFGQGTKVEIERTVAAPSVFIFPPSDEQLKSGTASVVCLLNNFYPREAKVQWKVDNALQSGNSQESVTEQDSKDSTYSLSSTLTLSKADYEKHKVYACEVTHQGLSSPVTKSFNRGEC	0.65	99.3 % of control	152 % of control			
GpH7-A5/GpH7-B3 variant V266_08L/GpL16-k0 (antibody, human IgG1, kappa, Heterodimerized IgG1; mutation in the GpH7-B3 H chain only; also called He Ab) heavy 1: not shown heavy 2: not shown light: DIVMTQSPLSLPVTPGEPASISCQASESLVHSNRNTYLHWYLQKPGQSPQLLIYKVSNRFSGVPDRFSGSGSGTDFTLKISRVEAEDVGVYYCSQNTHVPPTFGQGTKVEIERTVAAPSVFIFPPSDEQLKSGTASVVCLLNNFYPREAKVQWKVDNALQSGNSQESVTEQDSKDSTYSLSSTLTLSKADYEKHKVYACEVTHQGLSSPVTKSFNRGEC	0.42	98.1 % of control	236 % of control			
GpH7-A5/GpH7-B3 variant S267_02A/GpL16-k0 (antibody, human IgG1, kappa, Heterodimerized IgG1; mutation in the GpH7-B3 H chain only; also called He Ab) heavy 1: not shown heavy 2: not shown light: DIVMTQSPLSLPVTPGEPASISCQASESLVHSNRNTYLHWYLQKPGQSPQLLIYKVSNRFSGVPDRFSGSGSGTDFTLKISRVEAEDVGVYYCSQNTHVPPTFGQGTKVEIERTVAAPSVFIFPPSDEQLKSGTASVVCLLNNFYPREAKVQWKVDNALQSGNSQESVTEQDSKDSTYSLSSTLTLSKADYEKHKVYACEVTHQGLSSPVTKSFNRGEC	0.45	109 % of control	243 % of control			
GpH7-A5/GpH7-B3 variant D265_02A/GpL16-k0 (antibody, human IgG1, kappa, He Ab: mutation only in the GpH7-B3 H chain; EU numbering; also called He Ab) heavy 1: not shown heavy 2: not shown light: DIVMTQSPLSLPVTPGEPASISCQASESLVHSNRNTYLHWYLQKPGQSPQLLIYKVSNRFSGVPDRFSGSGSGTDFTLKISRVEAEDVGVYYCSQNTHVPPTFGQGTKVEIERTVAAPSVFIFPPSDEQLKSGTASVVCLLNNFYPREAKVQWKVDNALQSGNSQESVTEQDSKDSTYSLSSTLTLSKADYEKHKVYACEVTHQGLSSPVTKSFNRGEC				4.25	19.9 relative, HeCon Ab = 100	84.5 relative, HeCon Ab = 100
